# Source: US20120015841A1
# Biological target: human GC-C (guanylate cyclase C) stably expressed in 293T cells (human) (UniProt P25092)
# Experiment: cell-based or functional assay
# Sequence of human GC-C (guanylate cyclase C) stably expressed in 293T cells (human) (P25092 24-1073): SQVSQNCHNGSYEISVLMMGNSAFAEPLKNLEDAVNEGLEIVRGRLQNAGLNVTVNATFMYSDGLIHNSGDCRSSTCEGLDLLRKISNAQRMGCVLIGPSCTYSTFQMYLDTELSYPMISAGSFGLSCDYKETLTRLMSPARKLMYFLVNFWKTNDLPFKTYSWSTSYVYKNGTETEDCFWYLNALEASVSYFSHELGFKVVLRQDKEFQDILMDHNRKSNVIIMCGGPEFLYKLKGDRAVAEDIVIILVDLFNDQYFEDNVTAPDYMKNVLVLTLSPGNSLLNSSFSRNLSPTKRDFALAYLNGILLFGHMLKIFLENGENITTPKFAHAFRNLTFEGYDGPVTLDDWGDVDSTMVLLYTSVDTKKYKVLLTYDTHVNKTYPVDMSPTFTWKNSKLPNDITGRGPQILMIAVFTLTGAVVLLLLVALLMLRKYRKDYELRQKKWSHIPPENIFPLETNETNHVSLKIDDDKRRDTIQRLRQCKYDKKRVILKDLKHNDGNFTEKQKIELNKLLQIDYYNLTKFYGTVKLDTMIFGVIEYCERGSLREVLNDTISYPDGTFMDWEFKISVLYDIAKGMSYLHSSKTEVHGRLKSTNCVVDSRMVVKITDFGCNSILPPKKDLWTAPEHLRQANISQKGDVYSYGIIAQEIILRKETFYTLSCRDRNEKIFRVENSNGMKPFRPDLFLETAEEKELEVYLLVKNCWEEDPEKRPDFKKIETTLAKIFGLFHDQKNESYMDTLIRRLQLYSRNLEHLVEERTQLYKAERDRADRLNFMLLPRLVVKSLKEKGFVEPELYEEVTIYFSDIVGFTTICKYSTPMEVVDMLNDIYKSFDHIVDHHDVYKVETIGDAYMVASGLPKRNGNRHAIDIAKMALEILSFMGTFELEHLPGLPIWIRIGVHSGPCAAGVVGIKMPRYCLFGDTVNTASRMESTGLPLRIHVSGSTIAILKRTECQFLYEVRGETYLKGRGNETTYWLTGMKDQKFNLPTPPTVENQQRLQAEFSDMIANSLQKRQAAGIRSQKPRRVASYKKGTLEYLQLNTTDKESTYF
substance,measurement,value
guanylin (peptide),"EC50 of the cGMP response (absorbance, Direct Cyclic GMP Enzyme Immunoassay Kit) to a guanylin dose-response, 30 min, GC-C-expressing 293T cell line",1.1 nM
same,cGMP level in the GC-C-expressing cell line treated with low concentrations of guanylin,6 pmol/mL
